The supplement of paper PMC10201428
± gives the standard deviation of the averaged measurements.

B1: library; a variant is named by its letters at N, in order (parent)
chain: AATGTTGTTGATGCAACCATAAAGTGATATTTAATAATTATTTATAATCAGCAACTTAACCACAAAACAACCATATATTGATATNTCACAAAACAACCATAANTTGATATTTTTGTGAATCGAGTATTTCAGCAAAACTACTGCAGTAAGAA

How the values were obtained:
[1] = variants of: B1; assay: relative integration efficiency (T-LR orientation) vs wild-type transposon end (log2 (normalized fold change)); transposon end mutated: left end; higher = more efficient transposition; conditions: with VchCAST RNA-guided transposition machinery (E. coli BL21(DE3) host, lacZ target)
In short: (§1)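 Pools of 1549 left-end or 1849 right-end barcoded transposon variants were cloned into a pUC57 mini-transposon donor and co-transformed into E. coli BL21(DE3) with a T7-driven effector plasmid carrying a CRISPR array, tniQ-cas8-cas7-cas6 and tnsA-tnsB-tnsC. Plating used 0.1 mM IPTG at 37°C for 18 h, and input plasmids and genomic integration junctions were PCR-amplified for Illumina sequencing, with two biological output replicates and four reference barcodes. Relative integration efficiency is the log-transformed fold change of output over input barcode abundance, normalised to the reference barcodes.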

[2] = variants of: B1; assay: relative integration efficiency (T-RL orientation) vs wild-type transposon end (log2 (normalized fold change)); transposon end mutated: left end; higher = more efficient transposition; conditions: with VchCAST RNA-guided transposition machinery (E. coli BL21(DE3) host, lacZ target)
In short: as §1

| Variant | relative integration efficiency (log2) [1] | relative integration efficiency (log2) [2] |
| --- | --- | --- |
| CG A59C | 0.591 ± 0.26 | 0.072 ± 0.14 |
| CG A59T | 0.107 ± 0.13 | 0.0634 ± 0.055 |
| TG A23G G24T A33T T76A T78G C87A | 0.632 ± 0.11 | 0.16 ± 0.09 |
| TG A22T G24T T31C A33C T76A T78A T84A C87A | -0.618 ± 0.17 | -0.5 ± 0.36 |
| CG A23C G24T | -0.153 ± 0.042 | -0.106 ± 0.064 |
| CG A27T | -1.01 ± 1.3 | -0.545 ± 0.55 |
| CG A27G | -0.486 ± 0.47 | -0.621 ± 0.35 |
| CG A27C | -0.151 ± 0.13 | -0.383 ± 0.25 |
| CG A46C A47C T48G C49A | -2.09 ± 0.25 | -1.44 ± 0.53 |
| GG A83T T84A T86A | -0.405 ± 0.36 | -0.604 ± 0.36 |
| CG A27C T28G | -0.919 ± 0.29 | -1.27 ± 0.47 |
| CG A81C | -0.551 ± 0.4 | -0.479 ± 0.28 |
| CG A81T | -0.4 ± 0.15 | -0.396 ± 0.57 |
| CG A81G | -0.37 ± 0.32 | -0.449 ± 0.27 |
| CG A67C C68A A69C A70C | -0.846 ± 1.2 | -0.531 ± 0.42 |
| CG A37C T38G | -0.172 ± 0.0031 | -0.236 ± 0.044 |
| CG A66T A67T | 0.205 ± 0.48 | -0.0368 ± 0.048 |
| CG A34C T35C A36G T38C A40G T42C A44G T45C A46C A62G A65G A66C | -1.11 ± 0.2 | -1.33 ± 0.56 |
| CG A23C | 0.494 ± 0.15 | -0.467 ± 0.23 |
| CG A23G | 0.359 ± 0.084 | -0.0169 ± 0.11 |

| Variant | relative integration efficiency (log2) [1] | relative integration efficiency (log2) [2] |
| --- | --- | --- |
| CG A23T | 0.0168 ± 0.12 | 0.086 ± 0.23 |
| CG A53G | 0.388 ± 0.41 | -0.054 ± 0.011 |
| CG A53C | -0.195 ± 0.56 | -0.278 ± 0.078 |
| CG A53T | 0.318 ± 0.24 | 0.0743 ± 0.088 |
| CG A29T T30A T31A T32A | -0.245 ± 0.11 | -0.49 ± 0.46 |
| TG A22T G24T T31C A33C T76A A77G C87T | -0.123 ± 0.13 | -0.61 ± 0.41 |
| CG A81T T82A | -1.34 ± 0.81 | -1.03 ± 0.48 |
| CG A77G | 0.0745 ± 0.45 | -0.243 ± 0.024 |
| CG A77C | 0.611 ± 0.89 | 0.337 ± 0.052 |
| CG A77T | -0.192 ± 0.066 | -0.217 ± 0.059 |
| TG A23G G24T A33T A70C T76A T84A C87A | 0.473 ± 0.22 | 0.022 ± 0.35 |
| CG A64G | -0.0623 ± 0.097 | -0.383 ± 0.14 |
| CG A64T | -0.053 ± 0.081 | -0.229 ± 0.11 |
| CG A64C | -0.814 ± 1.1 | -0.0626 ± 0.11 |
| CG A37T T38A | 0.156 ± 0.25 | 0.191 ± 0.1 |
| CG A83C T84G | -0.6 ± 0.69 | -0.94 ± 0.4 |
| CG A44C T45G A46C A47C | 0.0873 ± 0.37 | -0.21 ± 0.22 |
| CG A46C A47C | -0.43 ± 0.42 | -0.349 ± 0.19 |
| CG A37G | 0.434 ± 0.033 | 0.146 ± 0.027 |
| CG A37T | 0.0565 ± 0.29 | -0.0666 ± 0.052 |

| Variant | relative integration efficiency (log2) [1] | relative integration efficiency (log2) [2] |
| --- | --- | --- |
| CG A37C | 0.0561 ± 0.13 | -0.222 ± 0.0095 |
| CG A40C T41G T42G T43G | -0.1 ± 0.062 | 0.139 ± 0.11 |
| CG A27T A81T A107T | -2.46 ± 1.4 | -3.03 ± 1.3 |
| CG A29T A83T A109T | -0.979 ± 0.74 | -0.428 ± 0.23 |
| CG A34T T35A A36T A37T | 0.329 ± 0.44 | 0.189 ± 0.094 |
| CG A33C A34C T35G A36C | -0.094 ± 0.018 | -0.077 ± 0.049 |
| CG A69C A70C C71A C72A | -1.64 ± 0.34 | -1.88 ± 0.72 |
| CG A70T C71G | -0.292 ± 0.66 | -0.898 ± 0.41 |
| TG A70C T76A T84A C87A | 0.577 ± 0.018 | -0.0929 ± 0.15 |
| CG A58C A59C C60A C61A | 0.829 ± 0.17 | 1.06 ± 0.036 |
| CG A36C | -0.699 ± 0.7 | -0.216 ± 0.15 |
| CG A36T | 0.0771 ± 0.068 | 0.0168 ± 0.042 |
| CG A36G | -0.222 ± 0.59 | -0.259 ± 0.23 |
| CG A64T A65T | 0.0165 ± 0.48 | 0.469 ± 0.084 |
| CG A77T T78A T79A G80C | -3.86 ± 2.7 | -2.18 ± 0.89 |
| CG A34C | 0.459 ± 0.34 | 0.215 ± 0.064 |
| CG A34G | -0.187 ± 0.0028 | -0.0204 ± 0.046 |
| CG A34T | 0.848 ± 0.42 | 0.709 ± 0.11 |
